First the molecules themselves.
T1: recombinant human FGF23 (R179Q) (human, UniProt Q9GZV9 25-251)
T1 construct: also called rhFGF23(R179Q); hFGF23(R179Q)
T1 sequence (looked up): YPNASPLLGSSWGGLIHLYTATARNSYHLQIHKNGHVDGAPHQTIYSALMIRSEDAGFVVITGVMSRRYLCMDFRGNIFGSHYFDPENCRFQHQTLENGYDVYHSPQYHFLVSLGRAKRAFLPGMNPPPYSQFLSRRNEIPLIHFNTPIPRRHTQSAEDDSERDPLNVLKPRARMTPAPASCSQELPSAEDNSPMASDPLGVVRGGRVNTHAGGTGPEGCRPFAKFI

B1: UGX117 (antibody, human IgG1, kappa, V domains shown)
VH: QVQLVQSGAEVKKPGASVKVSCKASGYTFTNHYMHWVRQAPGQGLEWMGIINPISGSTSNAQKFQGRVTMTRDTSTSTVYMELSSLRSEDTAVYYCARDIVDAFDFWGQGTMVTVSS
VL: AIQLTQSPSSLSASVGDRVTITCRASQGISSALIWYQQKPGKAPKLLIYDASSLESGVPSRFSGSGSGTDFTLTISSLQPEDFATYYCQQFNDYFTFGPGTKVDIKR
notes: also called LC:V34I
B2: UGX133 (antibody, human IgG1, kappa, V domains shown)
VH: QVQLVQSGAEVKKPGASVKVSCKASGYTFTNHYMHWVRQAPGQGLEWMGIINPISGSTSNAQKFQGRVTMTRDTSTSTVYMELSSLRSEDTAVYYCARDIVDAFDFWGQGTMVTVSS
VL: AIQLTQSPSSLSASVGDRVTITCRASQGISSALVWYQQKPGKAPKLLIYDASYLESGVPSRFSGSGSGTDFTLTISSLQPEDFATYYCQQFNDYFTFGPGTKVDIKR
notes: also called UGX022; LC:S53Y
B3: UGX131 (antibody, human IgG1, kappa, V domains shown)
VH: QVQLVQSGAEVKKPGASVKVSCKASGYTFTNHYMHWVRQAPGQGLEWMGIINPISGSTSNAQKFQGRVTMTRDTSTSTVYMELSSLRSEDTAVYYCARDIVDAFDFWGQGTMVTVSS
VL: AIQLTQSPSSLSASVGDRVTITCRASQGISSALVWYQQKPGKAPKLLIYDASFLESGVPSRFSGSGSGTDFTLTISSLQPEDFATYYCQQFNDYFTFGPGTKVDIKR
notes: also called LC:S53F
B4: UGX135 (antibody, human IgG1, kappa, V domains shown)
VH: QVQLVQSGAEVKKPGASVKVSCKASGYTFTNHYMHWVRQAPGQGLEWMGIINPISGSTSNAQKFQGRVTMTRDTSTSTVYMELSSLRSEDTAVYYCARDIVDAFDFWGQGTMVTVSS
VL: AIQLTQSPSSLSASVGDRVTITCRASQGISSALVWYQQKPGKAPKLLIYDASSLESGVPSRFSGSGSGTDFTLTISSLQPEDFATYYCQQFDDYFTFGPGTKVDIKR
notes: also called LC:N92D
B5: UGX127 (antibody, human IgG1, kappa, V domains shown)
VH: QVQLVQSGAEVKKPGASVKVSCKASGYTFTNHYMHWVRQAPGQGLEWMGIINPISGSTSNAQKFQGRVTMTRDTSTSTVYMELSSLRSEDTAVYYCARDIVDAFDFWGQGTMVTVSS
VL: AIQLTQSPSSLSASVGDRVTITCRASQGISSALVWYQQKPGKAPKLLIYDAESLESGVPSRFSGSGSGTDFTLTISSLQPEDFATYYCQQFNDYFTFGPGTKVDIKR
notes: also called UGX017; LC:S52E
B6: UGX130 (antibody, human IgG1, kappa, V domains shown)
VH: QVQLVQSGAEVKKPGASVKVSCKASGYTFTNHYMHWVRQAPGQGLEWMGIINPISGSTSNAQKFQGRVTMTRDTSTSTVYMELSSLRSEDTAVYYCARDIVDAFDFWGQGTMVTVSS
VL: AIQLTQSPSSLSASVGDRVTITCRASQGISSALVWYQQKPGKAPKLLIYDASELESGVPSRFSGSGSGTDFTLTISSLQPEDFATYYCQQFNDYFTFGPGTKVDIKR
notes: also called LC:S53E

The values that follow come from patent US20260250371A1 (ULTRAGENYX PHARMACEUTICAL, published 2026).

Values joined by “and” are separate entries in the source; they are usually repeats but may differ in a detail not shown here. Identical values can stand only once.

In this test the target is T1, recombinant human FGF23 (R179Q). In words: SPR, antibody captured on hIgG chip, rhFGF23(R179Q) analyte. In general terms: Surface plasmon resonance follows binding to a sensor surface in real time, without labels.
As to B1, the Kd (usually the concentration at which binding is half-saturated) was 0.0504 nM and 0.0703 nM; the “Ratio (variant antibody KD/burosumab KD)” value amounted to 0; the koff – broadly, a measure of how fast the partners let go of each other – was 0.000169 s⁻¹ and 0.000204 s⁻¹; the kon – broadly, the rate constant with which the complex forms – is 3.35e+06 M⁻¹ s⁻¹ and 2.9e+06 M⁻¹ s⁻¹.

For B2, the Kd came to 0.202 nM, the “Ratio (variant antibody KD/burosumab KD)” value was 0, the “SA (surface activity)” value is 84.8% and the koff is 0.000733 s⁻¹. Also, the kon came to 3.63e+06 M⁻¹ s⁻¹.

Consider B3, for which the Kd amounted to 0.0393 nM, the “Ratio (variant antibody KD/burosumab KD)” value was found to be 1, the “SA (surface activity)” value is 95.7% and the koff amounted to 0.000266 s⁻¹. For the same molecule, the kon stood at 6.78e+06 M⁻¹ s⁻¹.

For B4, the Kd is 0.0235 nM, the “Ratio (variant antibody KD/burosumab KD)” value came to 1, the “SA (surface activity)” value amounted to 100% and the off-rate constant (koff) is 0.000181 s⁻¹. Also, the kon amounted to 7.71e+06 M⁻¹ s⁻¹.

In the case of B5, the equilibrium dissociation constant (Kd) came out at 0.0176 nM, the “Ratio (variant antibody KD/burosumab KD)” value was determined as 1, the “SA (surface activity)” value was found to be 85% and the koff was 0.000122 s⁻¹. Moreover, the on-rate constant (kon) was determined as 6.93e+06 M⁻¹ s⁻¹.

Consider B6, for which the dissociation constant Kd amounted to 0.0348 nM, the “Ratio (variant antibody KD/burosumab KD)” value stood at 1, the “SA (surface activity)” value worked out at 88.4% and the off-rate constant (koff) is 0.000358 s⁻¹. Also, the kon is 1.03e+07 M⁻¹ s⁻¹.
